Substitutions are numbered along the chain they refer to. Numbers in names are those of the source. Entries after “also recorded” stand apart in the source; their conditions may differ.
B1: Lyn^G2A-GFP: Nt-mutant (G2A) Lyn-GFP (protein, UniProt P07948 2-512, looked up, variant G2A)
Tyrosine-protein kinase Lyn: ACIKSKGKDSLSDDGVDLKTQPVRNTERTIYVRDPTSNKQQRPVPESQLLPGQRFQTKDPEEQGDIVVALYPYDGIHPDDLSFKKGEKMKVLEEHGEWWKAKSLLTKKEGFIPSNYVAKLNTLETEEWFFKDITRKDAERQLLAPGNSAGAFLIRESETLKGSFSLSVRDFDPVHGDVIKHYKIRSLDNGGYYISPRITFPCISDMIKHYQKQADGLCRRLEKACISPKPQKPWDKDAWEIPRESIKLVKRLGAGQFGEVWMGYYNNSTKVAVKTLKPGTMSVQAFLEEANLMKTLQHDKLVRLYAVVTREEPIYIITEYMAKGSLLDFLKSDEGGKVLLPKLIDFSAQIAEGMAYIERKNYIHRDLRAANVLVSESLMCKIADFGLARVIEDNEYTAREGAKFPIKWTAPEAINFGCFTIKSDVWSFGILLYEIVTYGKIPYPGRTNADVMTALSQGYRMPRVENCPDELYDIMKMCWKEKAEERPTFDYLQSVLDDFYTATEGQYQQQP
modifications: GFP fusion
B2: Lyn^G2P-GFP: Nt-mutant (G2P) Lyn-GFP (protein, UniProt P07948 2-512, looked up, variant G2P)
Tyrosine-protein kinase Lyn: B1 Tyrosine-protein kinase Lyn with A1P
modifications: C-terminal GFP fusion

Tested on: DLD-1 Flp-In T-REx and Lyn KO cells
Assay: Level of Lyn / Lyn-GFP variants after NMT1/2 and DCAF10 siRNA, Western blot
Assay type: cell-based, human
Conditions: DLD-1, 72 h siRNA
Source text: To further investigate the role of the Nt-amino acid and its modification in DCAF10 recognition and DCAF10-dependent ubiquitination, we used the CRISPR/Cas9 technique to knock out Lyn in DLD-1 cell lines with T-REx Flp-In background (DLD-1 Lyn KO Flp-In T-REx) (Supplementary Fig. 7a–c). We then integrated Lyn^WT-GFP and two Nt-mutants (Lyn^G2A-GFP and Lyn^G2P-GFP) under a doxycycline-inducible promoter into the Flp-In cassette. Alanine (G2A) is expected to be efficiently acetylated by NatA, generating an Nt-acetylated Lyn mutant. Conversely, the proline (G2P) mutant, is expected not to be acetylated and may retain a free N-terminus[3],[36],[37]. Doxycycline-induced expression of Lyn^WT-GFP, Lyn^G2A-GFP, and Lyn^G2P-GFP was confirmed by Western blot, MS, and fluorescence microscopy (Supplementary Figs. 7d, e; 8a and Supplementary Data 6). […]
Fig. 6 N-terminal glycine mutation abolishes DCAF10-dependent stability and ubiquitination. a DLD-1 Flp-In T-REx cells and Lyn KO cells expressing Lyn^WT-GFP, Lyn^G2A-GFP, or Lyn^G2P-GFP were induced for 24 h with 100 ng/mL doxycycline. […] Filled circles represent siRNA treatment, empty circles untreated. b WB quantifications of Lyn levels normalized to vinculin. […] Lysates have been treated with NMT1/2 RNAi for 72 h. i Quantification of in vitro ubiquitination assays. […]

Molecule	Dependency on NMT1/2 and DCAF10 (in words)
B1	did not show such dependency; also recorded: slight increase after DCAF10 depletion, independently of NMT1/2
B2	did not show such dependency
